± gives the uncertainty stated by the source.
Assay: protein stability index of a GFP-peptide fusion (yeast GPS) (PSI 1-4); higher = more stable; sorted into four equal gates, so the index is relative within each strain
How it was run: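 The protein stability index combines read frequencies across sorting gates, each weighted by its gate number and then summed. To obtain those frequencies, a pooled yeast library of GFP fusions to tiled 17-residue yeast protein peptides, on a plasmid also expressing Cherry, was grown to mid-log phase in leucine-free medium. The cells were sorted into four equal gates by GFP/Cherry ratio before plasmid amplification by PCR and Illumina sequencing.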

## YGDGNGKGDNDNGLGPL [SWI3]
doa10∆
  protein stability index: 3.46 ± 0.15
pdr5∆
  protein stability index: 3.13 ± 0.3
san1∆
  protein stability index: 3.31 ± 0.073
ubr1∆
  protein stability index: 3 ± 0.1

## YGLGLIYAGFGRDTTDY [RPN2]
doa10∆
  protein stability index: 3.37 ± 0.12
pdr5∆
  protein stability index: 3.03 ± 0.1
san1∆
  protein stability index: 2.95 ± 0.084
ubr1∆
  protein stability index: 3.28 ± 0.088

## YGMSITETFEKPQRTNT [RPB2]
doa10∆
  protein stability index: 3.03 ± 0.14
pdr5∆
  protein stability index: 3.35 ± 0.17
san1∆
  protein stability index: 3.04 ± 0.12
ubr1∆
  protein stability index: 3.12 ± 0.11

## YGRKSFRNNKNDNYSSD [REC8]
doa10∆
  protein stability index: 3.28 ± 0.096
pdr5∆
  protein stability index: 3.22 ± 0.068
san1∆
  protein stability index: 3.32 ± 0.05
ubr1∆
  protein stability index: 3.14 ± 0.059

## YGTATADDADIEMKDVS [MED1]
doa10∆
  protein stability index: 3 ± 0.13
pdr5∆
  protein stability index: 3.17 ± 0.081
san1∆
  protein stability index: 3.01 ± 0.061
ubr1∆
  protein stability index: 3.15 ± 0.071

## YIEDFLLVIGGNQRKIL [YJR042W/NUP85]
doa10∆
  protein stability index: 1.59 ± 0.051
pdr5∆
  protein stability index: 1.86 ± 0.05
san1∆
  protein stability index: 1.62 ± 0.078
ubr1∆
  protein stability index: 1.71 ± 0.042

## YIEEKHPTIYESLPQYV [POP4]
doa10∆
  protein stability index: 2.33 ± 0.044
pdr5∆
  protein stability index: 2.39 ± 0.048
san1∆
  protein stability index: 1.91 ± 0.052
ubr1∆
  protein stability index: 2.06 ± 0.045

## YILEAEAAAKEKDELDN [QCR7]
doa10∆
  protein stability index: 3.1 ± 0.24
pdr5∆
  protein stability index: 3.11 ± 0.11
san1∆
  protein stability index: 3.1 ± 0.14
ubr1∆
  protein stability index: 3.18 ± 0.079

## YIQRRLVKALEDIMVHY [RPO21]
doa10∆
  protein stability index: 1.77 ± 0.049
pdr5∆
  protein stability index: 2.11 ± 0.051
san1∆
  protein stability index: 1.4 ± 0.075
ubr1∆
  protein stability index: 2.05 ± 0.055

## YIRKLISSGLLYLQDSN [SRB8]
doa10∆
  protein stability index: 1.63 ± 0.068
pdr5∆
  protein stability index: 1.21 ± 0.093
san1∆
  protein stability index: 1.18 ± 0.11
ubr1∆
  protein stability index: 1.11 ± 0.061

## YITAKNNVVINFKDMSH [PRP8]
doa10∆
  protein stability index: 2.26 ± 0.052
pdr5∆
  protein stability index: 2.02 ± 0.047
san1∆
  protein stability index: 2.42 ± 0.063
ubr1∆
  protein stability index: 2.14 ± 0.043

## YKAKIKELENNLERLRS [YIL149C/MLP2]
doa10∆
  protein stability index: 3.22 ± 0.095
pdr5∆
  protein stability index: 1.65 ± 0.051
san1∆
  protein stability index: 2.64 ± 0.078
ubr1∆
  protein stability index: 3.11 ± 0.054

## YKATATGPKQQEITTNL [SCL1]
doa10∆
  protein stability index: 3.17 ± 0.064
pdr5∆
  protein stability index: 3 ± 0.11
san1∆
  protein stability index: 2.93 ± 0.057
ubr1∆
  protein stability index: 3.29 ± 0.078

## YKIKGRNNSKSVLLKKL [SRP72]
pdr5∆
  protein stability index: 1.56 ± 0.11
san1∆
  protein stability index: 2.42 ± 0.26
ubr1∆
  protein stability index: 1.06 ± 0.11

## YKLGKVKKVQLGKKGVP [RPS4A]
doa10∆
  protein stability index: 2.85 ± 0.14
pdr5∆
  protein stability index: 2.98 ± 0.16
san1∆
  protein stability index: 3.19 ± 0.049
ubr1∆
  protein stability index: 2.94 ± 0.11

## YKLNVRSNDPQSSLSKV [NUT2]
doa10∆
  protein stability index: 3.21 ± 0.12
pdr5∆
  protein stability index: 3.42 ± 0.12
san1∆
  protein stability index: 3.33 ± 0.071
ubr1∆
  protein stability index: 3.41 ± 0.095

## YKLVNKNKENNTFTWNH [RPN4]
doa10∆
  protein stability index: 2.65 ± 0.23
pdr5∆
  protein stability index: 3.49 ± 0.27
san1∆
  protein stability index: 3.09 ± 0.082
ubr1∆
  protein stability index: 3.12 ± 0.21

## YKTSKAAQDVWNRADNH [FAS1]
doa10∆
  protein stability index: 2.96 ± 0.21
pdr5∆
  protein stability index: 2.98 ± 0.17
san1∆
  protein stability index: 1.71 ± 0.29

## YLEENKSDSQYRFYEYI [MED1]
doa10∆
  protein stability index: 3.04 ± 0.063
pdr5∆
  protein stability index: 3.06 ± 0.062
san1∆
  protein stability index: 3.12 ± 0.069
ubr1∆
  protein stability index: 3.13 ± 0.086

## YLEESFTNLGIIVQYLT [RGR1]
doa10∆
  protein stability index: 2.17 ± 0.2
pdr5∆
  protein stability index: 2.49 ± 0.29
san1∆
  protein stability index: 2.16 ± 0.19
ubr1∆
  protein stability index: 2.8 ± 0.09

## YLESLFAKQVDVQLERV [IRR1]
doa10∆
  protein stability index: 2.49 ± 0.095
pdr5∆
  protein stability index: 2.19 ± 0.074
san1∆
  protein stability index: 2.36 ± 0.12
ubr1∆
  protein stability index: 2.5 ± 0.051

## YLKKREAGEVKDDGAFV [RPL10]
doa10∆
  protein stability index: 3.16 ± 0.11
pdr5∆
  protein stability index: 2.8 ± 0.2
san1∆
  protein stability index: 3.37 ± 0.044
ubr1∆
  protein stability index: 3.27 ± 0.1

## YLLSIWVKKFKWAGIKT [CYT1]
doa10∆
  protein stability index: 2.38 ± 0.16
pdr5∆
  protein stability index: 1.57 ± 0.099
san1∆
  protein stability index: 2.17 ± 0.098
ubr1∆
  protein stability index: 2.29 ± 0.17

## YLNSRIIPTTLEEQQQL [YML103C/NUP188]
doa10∆
  protein stability index: 1.97 ± 0.039
pdr5∆
  protein stability index: 2.04 ± 0.042
san1∆
  protein stability index: 1.82 ± 0.071
ubr1∆
  protein stability index: 2.13 ± 0.052

## YLRVSFKNTRETAQAIN [RPL17A]
doa10∆
  protein stability index: 1.51 ± 0.03
pdr5∆
  protein stability index: 1.34 ± 0.042
san1∆
  protein stability index: 1.5 ± 0.1
ubr1∆
  protein stability index: 1.31 ± 0.034

## YMEPFDLDLNEQVRKMY [NSL1]
doa10∆
  protein stability index: 2.88 ± 0.1
pdr5∆
  protein stability index: 2.36 ± 0.079
san1∆
  protein stability index: 3.1 ± 0.068
ubr1∆
  protein stability index: 2.46 ± 0.052

## YNDSATSGEAAALGMGL [RPN2]
doa10∆
  protein stability index: 2.32 ± 0.096
pdr5∆
  protein stability index: 2.45 ± 0.11
san1∆
  protein stability index: 2.99 ± 0.078
ubr1∆
  protein stability index: 2.43 ± 0.084

## YNIDANVIDTQRKNGVT [ECM29]
doa10∆
  protein stability index: 2.75 ± 0.25
pdr5∆
  protein stability index: 3.14 ± 0.092
san1∆
  protein stability index: 3.26 ± 0.12

## YNSRPRSVRIPWYNNPV [PRP8]
doa10∆
  protein stability index: 2.34 ± 0.083
pdr5∆
  protein stability index: 2.22 ± 0.062
san1∆
  protein stability index: 1.73 ± 0.088
ubr1∆
  protein stability index: 2.49 ± 0.049

## YPLPKFPTTSHESLVTT [MED8]
doa10∆
  protein stability index: 1.81 ± 0.056
pdr5∆
  protein stability index: 1.92 ± 0.06
san1∆
  protein stability index: 2.12 ± 0.08
ubr1∆
  protein stability index: 1.72 ± 0.063

## YQDIEGGFEDVEEYTWS [RPB2]
doa10∆
  protein stability index: 3.44 ± 0.14
pdr5∆
  protein stability index: 3.29 ± 0.11
san1∆
  protein stability index: 3.49 ± 0.066
ubr1∆
  protein stability index: 3.44 ± 0.099

## YQELGSLQSSSQTQLEN [MED2]
doa10∆
  protein stability index: 2.96 ± 0.11
pdr5∆
  protein stability index: 3.3 ± 0.082
san1∆
  protein stability index: 3.08 ± 0.08
ubr1∆
  protein stability index: 3.17 ± 0.072

## YQNRSTRSQFCLNTQRG [RRI1]
doa10∆
  protein stability index: 2.8 ± 0.054
pdr5∆
  protein stability index: 3.09 ± 0.063
san1∆
  protein stability index: 3.1 ± 0.046
ubr1∆
  protein stability index: 2.97 ± 0.034

## YQRSKRVNNPNVSLIKI [RPL33A]
doa10∆
  protein stability index: 3.1 ± 0.067
pdr5∆
  protein stability index: 3.15 ± 0.065
san1∆
  protein stability index: 2.93 ± 0.059
ubr1∆
  protein stability index: 3.21 ± 0.045

## YRATSLDPSLRAPIYHS [YML031W/NDC1]
doa10∆
  protein stability index: 2.4 ± 0.068
pdr5∆
  protein stability index: 2.68 ± 0.055
san1∆
  protein stability index: 2.44 ± 0.058
ubr1∆
  protein stability index: 2.44 ± 0.037

## YRSCETQDESEIKDAET [SMC4]
doa10∆
  protein stability index: 3.77 ± 0.25
san1∆
  protein stability index: 3.31 ± 0.16

## YSEEPREKVRKLSQYVQ [FAS2]
ubr1∆
  protein stability index: 3.16 ± 0.26

## YSFGGLLMRLEGNYRNL [RPB8]
doa10∆
  protein stability index: 1.8 ± 0.12
pdr5∆
  protein stability index: 2.55 ± 0.12
san1∆
  protein stability index: 3.06 ± 0.17
ubr1∆
  protein stability index: 2.56 ± 0.088

## YSIFLENENILIKAKNF [SMC1]
doa10∆
  protein stability index: 1.21 ± 0.092
pdr5∆
  protein stability index: 1.22 ± 0.11
ubr1∆
  protein stability index: 1.14 ± 0.1

## YSKIPNILSNKPGQNNR [RRP6]
doa10∆
  protein stability index: 2.16 ± 0.087
pdr5∆
  protein stability index: 2.37 ± 0.074
san1∆
  protein stability index: 1.99 ± 0.16
ubr1∆
  protein stability index: 1.77 ± 0.047

## YSLASVTLKGAKALESL [POP1]
doa10∆
  protein stability index: 2.78 ± 0.049
pdr5∆
  protein stability index: 2.83 ± 0.052
san1∆
  protein stability index: 2.83 ± 0.045
ubr1∆
  protein stability index: 2.77 ± 0.052

## YSLIRETNGYDPFSIYG [SNF5]
doa10∆
  protein stability index: 1.23 ± 0.056
pdr5∆
  protein stability index: 1.31 ± 0.088
san1∆
  protein stability index: 1.15 ± 0.18
ubr1∆
  protein stability index: 1.06 ± 0.084

## YSRISKLKQLLDESSEQ [YIL149C/MLP2]
doa10∆
  protein stability index: 2.25 ± 0.077
pdr5∆
  protein stability index: 2.67 ± 0.088
san1∆
  protein stability index: 1.73 ± 0.14
ubr1∆
  protein stability index: 2.4 ± 0.053

## YSRITLIIDDPSKGQSL [RPP1]
doa10∆
  protein stability index: 2.09 ± 0.056
pdr5∆
  protein stability index: 2.44 ± 0.063
san1∆
  protein stability index: 2.42 ± 0.048
ubr1∆
  protein stability index: 2.78 ± 0.053

## YSRSVDKEWVFAALSDS [SSN2]
doa10∆
  protein stability index: 1.44 ± 0.088
pdr5∆
  protein stability index: 1.25 ± 0.06
san1∆
  protein stability index: 1.41 ± 0.12
ubr1∆
  protein stability index: 1.3 ± 0.043

## YSSILGNSFNKSSNDTI [YCG1]
doa10∆
  protein stability index: 2.5 ± 0.048
pdr5∆
  protein stability index: 2.77 ± 0.042
san1∆
  protein stability index: 2.62 ± 0.037
ubr1∆
  protein stability index: 2.81 ± 0.049

## YVAIVVDPLKSLEDKIL [RRI1]
doa10∆
  protein stability index: 1.12 ± 0.069
pdr5∆
  protein stability index: 1.38 ± 0.07
ubr1∆
  protein stability index: 1.68 ± 0.081

## YVDEQSKNELKKAFTSY [RPS16A]
doa10∆
  protein stability index: 3.06 ± 0.059
pdr5∆
  protein stability index: 3.21 ± 0.044
san1∆
  protein stability index: 3.07 ± 0.051
ubr1∆
  protein stability index: 3.13 ± 0.052

## YVLRNVLRIPEEYLDAN [MTW1]
doa10∆
  protein stability index: 2.67 ± 0.12
pdr5∆
  protein stability index: 2.33 ± 0.15
san1∆
  protein stability index: 3 ± 0.061
ubr1∆
  protein stability index: 2.82 ± 0.088

## YVNALADVLYKTAFKPH [QCR2]
doa10∆
  protein stability index: 3.04 ± 0.054
pdr5∆
  protein stability index: 3.06 ± 0.048
san1∆
  protein stability index: 2.72 ± 0.038
ubr1∆
  protein stability index: 2.81 ± 0.05

## YVRKHDPLNSNIFSEAV [PRP28]
doa10∆
  protein stability index: 2.9 ± 0.11
pdr5∆
  protein stability index: 2.76 ± 0.089
san1∆
  protein stability index: 2.9 ± 0.055
ubr1∆
  protein stability index: 3.1 ± 0.12
